Test results published in paper PMC9695261.

Target: Kansetin (human) (UniProt Q9BYF1)
Test: SPR

His-tagged RBD of the SARS-CoV-2 Omicron BA.5 strain (domain or fragment)
Kd: 33.1 nM

Spike S1+S2 trimer of the SARS-CoV-2 Omicron BA.5 strain (natural protein)
Kd: 1.22 nM
